Test results: US12534531 (MacroGenics, dated 2026)

Key:
[1] = molecular target: T1, soluble cynomolgus monkey PD-1 (the extracellular domain of cynomolgus monkey PD-1 fused to a human Fc Region) (cynomolgus monkey, UniProt B0LAJ3 25-170); test: ELISA: scyno-PD-1-TEV-Fc coated at 0.5 ug/ml, goat anti-mouse (H+L)-HRP, RLU
T1 construct: also called scyno-PD1 Fc; scynoPD-1-hFc; not shown: Human Fc Region and any linker or cleavage site between the extracellular domain and the Fc

[2] = molecular target: T2, soluble cynomolgus monkey PD-1 (scyno PD-1 hFc) cleaved to remove Fc portion (cynomolgus monkey, UniProt B0LAJ3 25-170); test: Biacore, mAb captured on Protein A, analyte scyno PD-1 hFc cleaved of Fc
T2 sequence (B0LAJ3 entry or part of it limits assumed): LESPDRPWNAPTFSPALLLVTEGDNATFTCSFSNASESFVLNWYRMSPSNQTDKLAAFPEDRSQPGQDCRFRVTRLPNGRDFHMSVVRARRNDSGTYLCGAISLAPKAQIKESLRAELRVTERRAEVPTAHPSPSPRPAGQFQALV

[3] = molecular target: T3, soluble human PD-1 (the extracellular domain of human PD-1 fused to a His tag) (human, UniProt Q15116 25-170); test: Biacore, mAb captured on Protein A, analyte shPD-1 His
T3 construct: also called shPD-1 His; shPD-1-His; not shown: His tag
T3 sequence (Q15116 25-170): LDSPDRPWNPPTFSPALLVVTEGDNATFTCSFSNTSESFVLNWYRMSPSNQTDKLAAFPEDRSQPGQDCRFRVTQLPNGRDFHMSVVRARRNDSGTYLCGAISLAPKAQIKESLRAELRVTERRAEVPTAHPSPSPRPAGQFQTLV

[4] = molecular target: T3, soluble human PD-1 (the extracellular …); test: ELISA: shPD-1 His coated at 1 ug/ml, goat anti-mouse (H+L)-HRP, RLU
[5] = molecular target: T4, human PD-1 expressed on the surface of cells (NSO cells expressing human PD-1; MNFAT-luc2/PD-1 Jurkat cells) (human, UniProt Q15116 21-288); test: FACS blocking on NSO cells expressing human PD-1, 1:4 dilutions, MFI; blocked ligand: biotinylated sPD-L1, streptavidin-PE
T4 construct: also called cell surface PD-1; PDCD1 transfected NSO cells expressing PD-1
T4 sequence (Q15116 21-288): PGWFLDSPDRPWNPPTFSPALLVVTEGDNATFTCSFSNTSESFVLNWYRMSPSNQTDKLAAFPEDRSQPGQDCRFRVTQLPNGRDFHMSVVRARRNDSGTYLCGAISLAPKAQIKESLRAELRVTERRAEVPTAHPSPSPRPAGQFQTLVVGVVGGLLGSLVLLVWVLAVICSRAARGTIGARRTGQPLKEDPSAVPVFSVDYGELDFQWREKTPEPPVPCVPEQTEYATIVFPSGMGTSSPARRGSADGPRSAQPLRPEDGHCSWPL

[6] = molecular target: T4, human PD-1 expressed on the surface of …; test: FACS blocking on NSO cells expressing human PD-1, 1:4 dilutions, MFI; blocked ligand: biotinylated sPD-L2, streptavidin-PE
[7] = molecular target: T4, human PD-1 expressed on the surface of …; test: FACS saturation binding on NSO cells expressing human PD-1, goat anti-human-APC, MFI, 1:4 dilutions
[8] = molecular target: T3, soluble human PD-1 (the extracellular …); test: ELISA: shPD-1 His coated at 0.5 ug/ml, goat anti-mouse (H+L)-HRP, RLU
[9] = molecular target: T2, soluble cynomolgus monkey PD-1 (scyno …); test: Biacore, mAb captured on F(ab)2 goat anti-human Fc, analyte scyno PD-1 hFc cleaved of Fc
[10] = molecular target: T3, soluble human PD-1 (the extracellular …); test: Biacore, mAb captured on F(ab)2 goat anti-human Fc, analyte shPD-1 His
[11] = molecular target: T5, PD-1 on the surface of CD4+ and CD8+ T cells of cynomolgus monkeys (cynomolgus monkey, UniProt B0LAJ3 25-288); test: flow cytometry competition with labeled hPD-1 mAb 7 (1.2) IgG4 (P) on blood of cynomolgus monkeys given 10 mg/kg
T5 construct: In vivo occupancy read by flow cytometry; also called PD-1+/CD4+ and PD-1+/CD8+ cells
T5 sequence (B0LAJ3 entry or part of it limits assumed): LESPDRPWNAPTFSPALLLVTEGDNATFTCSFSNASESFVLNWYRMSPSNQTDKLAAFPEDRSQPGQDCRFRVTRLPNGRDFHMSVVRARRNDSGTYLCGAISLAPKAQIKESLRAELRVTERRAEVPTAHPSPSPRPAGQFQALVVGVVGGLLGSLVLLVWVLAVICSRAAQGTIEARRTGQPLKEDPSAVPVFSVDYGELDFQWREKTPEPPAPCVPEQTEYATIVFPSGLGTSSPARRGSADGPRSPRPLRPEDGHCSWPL

[12] = molecular target: T1, soluble cynomolgus monkey PD-1 (the …); test: ELISA: scyno-PD-1-TEV-hFc coated at 1 ug/ml, goat anti-mouse (H+L) detection, RLU
[13] = molecular target: T4, human PD-1 expressed on the surface of …; test: FACS: biotinylated sPD-L2 on NSO cells expressing human PD-1, streptavidin-PE, MFI

T1 sequence (B0LAJ3 entry or part of it limits assumed): as the sequence (Q15116 25-170) above, with D2E, P10A, V19L, T35A, Q75R, T144A counted along it

B1: PD-1 mAb 2 (antibody, V domains shown)
VH: DVQLVESGGGLVQPGGSRKLSCAASGFVFSSFGMHWVRQAPEKGLEWVAYISSGSMSISYADTVKGRFTVTRDNAKNTLFLQMTSLRSEDTAIYYCASLSDYFDYWGQGTTLTVSS
VL: DVVMSQTPLSLPVSLGDQASISCRSSQSLVHSTGNTYLHWYLQKPGQSPKLLIYRVSNRFSGVPDRFSGSGSGTDFTLKISRVEAEDLGVFFCSQTTHVPWTFGGGTKLEIK
notes: Murine monoclonal antibody
EC50 (read off the curve) [1]: ~0.3 nM | Kd [2]: 14.3 nM | Kd [3]: 10.2 nM | EC50 (read off the curve) [4]: ~0.3 nM

B2: PD-1 mAb 4 (antibody, V domains shown)
VH: DVQLVESGGGLVQPGGSRKLSCAASGFVFSSFGMHWVRQAPEKGLEWVAYISSGSMSISYADTVKGRFTVTRDNAKNTLFLQMTSLRSEDTAIYYCASLTDYFDYWGQGTTLTVSS
VL: DVVMSQTPLSLPVSLGDQASISCRSSQSLVHSTGNTYFHWYLQKPGQSPKLLIYRVSNRFSGVPDRFSGSGSGTDFTLKISRVEAEDLGVYFCSQTTHVPWTFGGGTKLEIK
notes: Murine monoclonal antibody
EC50 (read off the curve) [1]: ~0.3 nM | EC50 (read off the curve) [4]: ~0.3 nM

B3: hPD-1 mAb 7 (1.1) IgG1 (AA) (antibody, V domains shown)
VH: QVQLVQSGAEVKKPGASVKVSCKASGYSFTSYWMNWVRQAPGQGLEWIGVIHPSDSETWLDQKFKDRVTITVDKSTSTAYMELSSLRSEDTAVYYCAREHYGTSPFAYWGQGTLVTVSS
VL: EIVLTQSPATLSLSPGERATLSCRANESVDNYGMSFMNWFQQKPGQPPKLLIHAASNQGSGVPSRFSGSGSGTDFTLTISSLEPEDFAVYFCQQSKEVPYTFGGGTKVEIKR
notes: VH1 with VL1
IC50 (read off the curve) [5]: ~0.01 ug/test | IC50 (read off the curve) [6]: ~0.01 ug/test | EC50 (read off the curve) [7]: ~0.2 µg/mL

B4: PD-1 mAb 5 (antibody, V domains shown)
VH: QVQLQQPGVELVRPGASVKLSCKASGYSFTAYWMNWMKQRPGQGLEWIGVIHPSDSETWLNQKFKDKATLTVDKSSSTAYMQLISPTSEDSAVYYCAREHYGSSPFAYWGQGTLVTVSA
VL: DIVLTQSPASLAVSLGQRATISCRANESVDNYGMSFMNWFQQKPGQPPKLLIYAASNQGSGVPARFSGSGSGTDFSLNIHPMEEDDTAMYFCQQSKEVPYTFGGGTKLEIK
notes: Murine monoclonal antibody
binding result [1]: binds | EC50 (read off the curve) [8]: ~0.3 nM

B5: PD-1 mAb 7 (antibody, V domains shown)
VH: QVQLQQPGAELVRPGASVKLSCKASGYSFTSYWMNWVKQRPGQGLEWIGVIHPSDSETWLDQKFKDKATLTVDKSSTTAYMQLISPTSEDSAVYYCAREHYGTSPFAYWGQGTLVTVSS
VL: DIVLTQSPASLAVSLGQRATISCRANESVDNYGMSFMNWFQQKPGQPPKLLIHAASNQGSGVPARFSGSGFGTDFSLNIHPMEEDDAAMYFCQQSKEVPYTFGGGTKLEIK
notes: Murine monoclonal antibody
EC50 (read off the curve) [1]: ~0.3 nM | Kd [2]: 3.5 nM | Kd [3]: 1.3 nM | EC50 (read off the curve) [8]: ~0.2 nM

B6: hPD-1 mAb 9 (1.1) IgG4 (P) (antibody)
heavy: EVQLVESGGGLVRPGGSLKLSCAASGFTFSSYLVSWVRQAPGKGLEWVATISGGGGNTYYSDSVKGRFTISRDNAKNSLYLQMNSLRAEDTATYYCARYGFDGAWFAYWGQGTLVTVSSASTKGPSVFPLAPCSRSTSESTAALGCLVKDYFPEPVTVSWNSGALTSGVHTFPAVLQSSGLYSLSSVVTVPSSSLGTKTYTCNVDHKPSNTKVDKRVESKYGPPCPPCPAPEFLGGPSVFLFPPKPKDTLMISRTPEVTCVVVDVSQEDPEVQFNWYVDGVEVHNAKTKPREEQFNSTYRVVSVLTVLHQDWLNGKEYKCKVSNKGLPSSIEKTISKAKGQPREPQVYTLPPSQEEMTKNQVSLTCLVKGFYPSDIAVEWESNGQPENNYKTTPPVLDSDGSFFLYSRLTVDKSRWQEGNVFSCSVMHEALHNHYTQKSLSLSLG
light: DIQMTQSPSSLSASVGDRVTITCRASENIYSYLAWYQQKPGKAPKLLIYNAKTLAAGVPSRFSGSGSGTDFTLTISSLQPEDFATYYCQHHYAVPWTFGQGTKLEIKRTVAAPSVFIFPPSDEQLKSGTASVVCLLNNFYPREAKVQWKVDNALQSGNSQESVTEQDSKDSTYSLSSTLTLSKADYEKHKVYACEVTHQGLSSPVTKSFNRGEC
notes: also called hPD-1 mAb 9 IgG4 (P)
Kd [9]: 15.1 nM | IC50 (read off the curve) [5]: ~0.03 ug/test | Kd [10]: 9.5 nM | IC50 (read off the curve) [6]: ~0.1 ug/test | EC50 (read off the curve) [7]: ~0.5 µg/mL

B7: hPD-1 mAb 9 (1.1) IgG1 (AA) (antibody)
heavy: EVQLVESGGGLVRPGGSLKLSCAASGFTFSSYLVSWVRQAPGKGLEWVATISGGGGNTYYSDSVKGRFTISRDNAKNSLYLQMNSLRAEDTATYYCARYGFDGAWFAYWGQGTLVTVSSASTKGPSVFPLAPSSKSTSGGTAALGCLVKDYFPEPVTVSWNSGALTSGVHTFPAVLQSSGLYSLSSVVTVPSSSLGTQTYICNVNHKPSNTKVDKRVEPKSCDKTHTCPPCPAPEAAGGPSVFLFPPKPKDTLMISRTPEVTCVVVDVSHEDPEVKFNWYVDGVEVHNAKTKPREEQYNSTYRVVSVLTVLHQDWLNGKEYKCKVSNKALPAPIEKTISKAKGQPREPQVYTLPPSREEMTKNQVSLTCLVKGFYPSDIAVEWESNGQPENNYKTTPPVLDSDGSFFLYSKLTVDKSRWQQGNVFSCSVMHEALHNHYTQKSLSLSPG
light: DIQMTQSPSSLSASVGDRVTITCRASENIYSYLAWYQQKPGKAPKLLIYNAKTLAAGVPSRFSGSGSGTDFTLTISSLQPEDFATYYCQHHYAVPWTFGQGTKLEIKRTVAAPSVFIFPPSDEQLKSGTASVVCLLNNFYPREAKVQWKVDNALQSGNSQESVTEQDSKDSTYSLSSTLTLSKADYEKHKVYACEVTHQGLSSPVTKSFNRGEC
notes: also called hPD-1 mAb 9 IgG1 (AA)
Kd [9]: 9.3 nM | IC50 (read off the curve) [5]: ~0.06 ug/test | Kd [10]: 10.9 nM | IC50 (read off the curve) [6]: ~0.1 ug/test | EC50 (read off the curve) [7]: ~0.2 µg/mL

B8: PD-1 mAb B IgG4 (P) (antibody, V domains shown)
VH: QVQLVQSGVEVKKPGASVKVSCKASGYTFTNYYMYWVRQAPGQGLEWMGGINPSNGGTNFNEKFKNRVTLTTDSSTTTAYMELKSLQFDDTAVYYCARRDYRFDMGFDYWGQGTTVTVSS
VL: EIVLTQSPATLSLSPGERATLSCRASKGVSTSGYSYLHWYQQKPGQAPRLLIYLASYLESGVPARFSGSGSGTDFTLTISSLEPEDFAVYYCQHSRDLPLTFGGGTKVEIK
Kd [9]: 4 nM | PD-1 binding on CD4+ and CD8+ T cells (% bound, in vivo) [11]: ≥ 80%

B9: PD-1 mAb 9 (antibody, V domains shown)
VH: EVMLVESGGGLVKPGGSLKLSCAASGFTFSSYLVSWVRQTPEKRLEWVATISGGGGNTYYSDSVKGRFTISRDNAKNTLYLQISSLRSEDTALYYCARYGFDGAWFAYWGQGTLVTVSS
VL: DIQMTQSPASLSASVGDIVTITCRASENIYSYLAWYQQKQEKSPQLLVYNAKTLAAGVPSRFSGSGSGTQFSLTINSLQPEDFGNYYCQHHYAVPWTFGGGTRLEIT
notes: Murine monoclonal antibody
Kd [2]: 72.7 nM | binding result [12]: binds | Kd [3]: 9.8 nM | EC50 (read off the curve) [4]: ~0.4 nM

B10: PD-1 mAb A IgG4 (P) (antibody, V domains shown)
VH: QVQLVESGGGVVQPGRSLRLDCKASGITFSNSGMHWVRQAPGKGLEWVAVIWYDGSKRYYADSVKGRFTISRDNSKNTLFLQMNSLRAEDTAVYYCATNDDYWGQGTLVTVSS
VL: EIVLTQSPATLSLSPGERATLSCRASQSVSSYLAWYQQKPGQAPRLLIYDASNRATGIPARFSGSGSGTDFTLTISSLEPEDFAVYYCQQSSNWPRTFGQGTKVEIK
Kd [9]: 6 nM | PD-1 binding on CD4+ and CD8+ T cells (% bound, in vivo) [11]: ≥ 80%

B11: PD-1 mAb 1 (antibody, V domains shown)
VH: DVQLQESGPGRVKPSQSLSLTCTVTGFSITNDYAWNWIRQFPGNKLEWMGHITYSGSTSYNPSLKSRISITRDTSKNHFFLQLSSVTPEDTATYYCARDYGSGYPYTLDYWGQGTSVTVSS
VL: QIVLTQSPALMSASPGEKVTMTCSATSIVSYVYWYQQKPGSSPQPWIYLTSNLASGVPARFSGSGSGTSYSLTISSMEAEDAATYYCQQWSDNPYTFGGGTKLEIK
notes: Murine monoclonal antibody
EC50 (read off the curve) [1]: ~0.3 nM | EC50 (read off the curve) [4]: ~0.3 nM

B12: biotinylated-soluble human PD-L2-muIgFc fusion protein (Ancell Cat #573-030) (Fc fusion, UniProt Q9BQ51 20-220, looked up)
chain: LFTVTVPKELYIIEHGSNVTLECNFDTGSHVNLGAITASLQKVENDTSPHRERATLLEEQLPLGKASFHIPQVQVRDEGQYQCIIIYGVAWDYKYLTLKVKASYRKINTHILKVPETDEVELTCQATGYPLAEVSWPNVSVPANTSHSRTPEGLYQVTSVLRLKPPPGRNFSCVFWNTHVRELTLASIDLQSQMEPRTHPT
modifications: biotinylated (site not stated)
notes: Bought reagent; also called shPD-L2; sPD-L2; not shown: murine Ig Fc
binding result [13]: binds

B13: PD-1 mAb 6 (antibody, V domains shown)
VH: EVKLVESGGGLVNPGGSLKLSCAASGFTFSSYGMSWVRQTPEKRLEWVATISGGGSDTYYPDSVKGRFTISRDNAKNNLYLQMSSLRSEDTALYYCARQKATTWFAYWGQGTLVTVST
VL: not shown
notes: Murine monoclonal antibody
binding result [1]: binds | EC50 (read off the curve) [8]: ~0.3 nM
